A protein production outcome set (Wang et al. 2014)

Assay: label from the status in PepcDB records

| Sequence | protein production |
| --- | --- |
| MKILVTSGGTSEAIDSVRSITNHSTGHLGKIITETLLSAGYEVCLITTKRALKPEPHPNLSIREITNTKDLLIEMQERVQDYQVLIHSMAVSDYTPVYMTGLEEVQASSNLKEFLSKQNHQAKISSTDEVQVLFLKKTPKIISLVKEWNPTIHLIGFKLLVDVTEDHLVDIARKSLIKNQADLIIANDLTQISADQHRAIFVEKNQLQTVQTKEEIAELLLEKIQAYHS | not failed |
| MAKHAILVIDMLNDFVGEKAPLRCPGGETIIPDLQKIFEWVRGREGDDIHLVHIQEAHRKNDADFRVRPLHAVKGTWGSDFIPELYPQEDEYIVQKRRHSGFAHTDLDLYLKEEGIDTVVLTGVWTNVCVRSTATDALANAYKVITLSDGTASKTEEMHEYGLNDLSIFTKVMTVDQYIQAWENDEDPWVGGGDAQNKVK | not failed |
| EVALRHPQSPKPCLIGNCQGGWAILTLMAANPDVAGVAVVNGAPLSYWGGENGKNPMRYIGGIWGGSWIAQMAGDLGNGKFDGANLVMNFEMANPKVTYWSKYYNLFANLDKEEIRFLNFERWWGGFSLLNVNEMRGIIDNLFIGNKLVHGKIPLGQSGNNLDLRNISVPVIIFCSEGDNITPPQQALNWVSDLYSNTLEIKLDGQVIVYLIHKSVGHLGIFVSSEVAKKEHNQIIDLLN | not failed |
| MTAPGSVPLTVIGGFWGAGKTTLLNYLLKVQHSERVLVMVNDFGSINIDAELLDQGRHDRPGVVRLQNGCVCCSIGGDLMQAFLQVMSMPDRPDRIIVEASGVADPTRIAQIGRVSGGLSDEGVITLVDASAVRALAADKYVGDIVRQQILSADIVLLNKLDLSSDAEIVETRAWLRDLAPRTRVVSCIHGEVDAVSVLGIGAGKVAPDTAGGPVDVPVPDLRRASTRHADTFHSSTLATEHRFDRRRIEYALDALPQTVLRGKGFVELEGEATPALLQLCGSRWTLDPVSTPAPPAGTHLVFIATGGRGVPRFDAPSHFEQALASRDAASADTSNLEHHHHHH | failed |
| MRRGRGKGKKQNASAREDRGSGDEEKIPAYRRRGRPQKPMKDDFEEEEEEDDEEMVEKMEVEDEDEEIDDGSVTSKDLKERKRKMSNGSNTDLTEEENGLGSKPNTDDSTRSTSIGFRQNGSRRKSKPRRAAEAVVECNGV | failed |
| VSVIMPVLNEERHLRGAVQAILAQEYDGEMEVVIAIGPSSDRTEEIAAELVREDPRVHTVPNPTGRTPAALNAAIKASRHPVVVRVDGHGMLSPNYIATAVRLLAETGAQNVGGIMHAEGENDWEHAVAAAMTSKIGVGNAAFHTGGEAGPAETVYLGVFRREALEQQGGYNEEFIRAQDWELNFRIREAGGLIWFSPELKVSYRPRPSVRALAKQYKDYGRWRHVVARYHEGSINLRYLAPPTAVCAIAAGVVVGLALTPWGLVVPGGYLAAIALGS | failed |
| MYFLYVGIFGALGGMCRYAMNLWLGGGDFPSATLAVNLIGCFLLAFIMPFLAEKSRISLVLLNGIGTGFIGAFTTFSAFSVDTIELLQQGEVVLAISYILVSLIGGLVMVKFGRRFSNKLLRRGAHHVD | failed |
| MLKLSCNVTDHIHNLFSNSRRIFVPVHRQTRPISCFQLKKEPLRAILSADHGNSSVRVADTVSGTSPADRLRFGRLMEDGFSYKEKFIVRSYEVGINKTATIETIANLLQEVACNHVQNVGFSTDGFATTLTMRKLHLIWVTARMHIEIYKYPAWSDVVEIETWCQSEGRIGTRRDWILKDCATGEVIGRATSKWVMMNQDTRRLQRVTDEVRDEYLVFCPPEPRLAFPEENNSSLKKIPKLEDPAQYSMLGLKPRRADLDMNQHVNNVTYIGWVLESIPQEIIDTHELKVITLDYRRECQQDDIVDSLTTSETPNEVVSKLTGTNGSTTSSKREHNESHFLHILRLSENGQEINRGRTQWRKKSSR | failed |
| MPTPIHVLPPHVARLIAAGEVVSRPLDVVRELVENALDAGASRIEIEVDGGGLERVQVRDNGSGIAAQSVPLAPARHATSKLTAGPETGSLSVTTLGFRGEALWAAAQAGELELTTRPAAQVGAARLRAQGDAVEVSRTSAPAGTTVTVSQLFARLPARLRTQASAAAEVRDITALLGRYVLHHSALHWRLTVDGDPRLTHAPADHRGAVATVYGPLSANRVLTLDTPGVRGVVSRPELTRARRDRMHFAVNGRPIVAPPELERAVIDAYAELLPAGTAPLCVLDLTVAPEDYDPNIHPAKQVVALADLPAVALRVRDAVAGALAGHPLVRAAPALIAPPEPHPAPTAGNFPDLTLLGVYQELYLLAQGEGDLWVVDAHAAHERALYERLGRELGTAAPLELPTPELLHLTPEQTARLHERGAELRGWGLTIEDFGAGLARLRTLPAALAALPVPRLHEVVVETALSGGPDPRREVLARLACLPALKAGMLDAERGALVLAALRECEQPWACPHGRPTVLRLSERDLAHAFGRRGVRDVARGRDSVV | failed |
| MSDIKHEKKLANMDTPGETTKSFENKLDEEIPDIEESDFINSPPFSDEIFSPEDSKQVEISELSKQAYSLLKGNSITEAINVFKKILELDPTNNYALVGLGDAERKNNKFNEAIKFYKQCLEHHPSNNYALFGLADCYKSMNQFPRAIAIWEEYLKFDDKNITVLTRVADAYRKTKEFEKAEKLYQKVLEKSPKNAYALIGLGHLNYDFKKYREALVYWEKVMESSGELVDIRILTSIGNCYRKMKLFDRGVYYFERALERSPDNFYGLFGLADCYRGLNQQYNSIVYWKKILELDPNNKVILTRIGDAYRSMNDFEKAKESYQKALDIDFDSYAMLGLAILCKLQQKYDQAITTLTHLKDTGDTNYNYRVYLELAQCYIEKKEKQKAIETLIDFQKLGIKNQTVSDLLFELTKNDH | failed |
| MTTTTNKAWRTICKATELVKDSGISALIANSAGEDEQIAIFHIPNSEEKIYAVGNYDPIGQANVLYRGLVGCIDDEPVVSSPLYKQHYSLKTGRCLQEDQTIAVYDIRIENEQVQLFYLEHHHHHH | failed |
| MKLVLEGVDSFETLRVVGTFNCIDPDYVGSKRVTKKADVYAFEVILMELITGRKANYETLSVDEQNLVMWLRPKIKISTFLNLVDGTIATDKETIKRIKKIAKLAEYCTSQEVESRPLRASRTKSGNEVTSED | failed |
| MAQADTPAPVARLPRRRGIELALILMAVLLSVFGYCNVGLAQHDALPPGAAGYGAGLGVLALLAHLAVRLRAPYADPLLLPIGVLLNGLGLVLIYRLDLETPGDRAAPTQLVWSTLGVALFIVVVLLLRDHRVLQRYAYVCVAAALALLTVPIFFPAVNGARIWIRIEGFSIQPGEFAKVLLAVFFAAYLAANRSALAYAGRRVWRLQLPTGRVLGPILAVWLVSVGVLVLERDLGTSLLFFGLFVVLLYVATGRTGWIAVGLLLASLGAVAVGWLEPHVHSRVEDWLHPFASIEAGHGPNQLAQSLFAFAAGGVTGTGLGLGHSVLIGFAVKSDFILATAGEELGFLGLSAVFLLYGLLVERGYRAGLGARDPFGRLLAVGLSSIVALQVFVIAGGVTGLIPLTGMAMPFLAQGGSSVVTNWAIVALLIRVSHAARSQAGGRAEP | failed |
| MAKKRGKPEIDWTDDDKEIIWVSKSEIKRDSEHLKKLGAELIELTPQNLEKIPLDEDLKYAIRQAQSFKLEARRRQIQFIGKLLRNRDSAPIQDALDKVKNRHNQQQALLHKLELIRDQLINMGDASLNQLLSEYPQLDRQHLRNLIRMAQKEKQINKPAKNYHEILQYLKSELIV | not failed |
| MNKKRMIAMVSTALLVTGCAEVGNAQTVAVENSGQSVQKNIVKSIQSQANPLKTIEPSKPFEDLKPLKKMIGNAQYVGLGENTHGSSEIFTMKFRLVKYLVTEMGFTNFAMEEDWGNGLKLNEYIQTGKGNPREFLKLLYPTDEIIAMIEWMKDYNADPSNKKKIQFIGLDLKALDQGSFNKVIDYVRLHRPDLLAEVEENYKELSSFTGSIQEYMKLTPKLKEKFKANAERVARLLKDENEQANTEIIPSEYIWAKATASAIEKFTTMLLPNDYPSIIKLHEQYLADHAMWAQETFGGKTMVWAHNIHIAKGIIDEKLYPYVAGQFLKERLDNNYVTIGSTTTEGNFTLYSEYNPSTGGKITTDTIPQDVKSFNYTLGKVPYKMFLLDNRHLKGQAEKWVKAKRPLLSIGGQILPNSSVYFDTSLLEQFDIIFHIRKTSPSHIKLEHHHHHH | not failed |
| MITLTKEGGPADLDGVTHLSIGVSWDPTAGSSGGVLGKLRRKTGTDLDLIAVAMQGGDPVRLAGLDSLDPMGNGSLLHSGDNQTGHGDGDDETVTVEFARLPSAITSIVFVAAAYKKGSSFQKARNISFKVYDATGGSSEQVADIWPSLLSQDNGCAVAKAVRVGGTWKLEVVNETGKIKQGDEHALMRFAVSK | failed |
| MALLLFFLFIALLGFGILKINNRSILGGITLASGTLLSLVTLLFIGLDKIYLHFKNGDLITLAIAYLLIPAVFIGICLYFIFNSRTMQTKEGKSVTAKLSAGLGLNLLIALPAFLYLLSVGTAQIPYVLFLFLLFLLLMDLLLTFLFAAYVLYSWMYQMIPLKKAVDYIIVLGSGIRSEEVPPLLKSRLDKGIEYYEKNPTAKFVVSGGQGPDEPVAEAFAMKKYLLSQNIPAEAILMEDQSTTTYENMLFSKAIIQADWQKMPSDSKQPSVIFSTNNYHVLRGAMYAHRVGLKAEGVGAPTALYFLPTALIREYIALLVHDKRIVLFVFLLVTLLLGISILPI | failed |
| MKLAVISSIYKNDSLSKIKQSLQSLLNQENVTCDIYLYCDGPVSIDIVHFLDSFDQNSLYIFKQEQNRGLAHALNELLNIVLTKEYEYIARMDADDISMPERFVKQIAFMNSHPDIDCLGTWAIEIDDDGKEYFRKKMPITHEECLELFKKRDCMIHPTVMFRRSYFEKAGLYPEDTYFGEDTMMWAKGFKSGCKFANVPEYLFKFRLDSNFFERRRGWKHAKSIYTLRHRVNRMLGFGWKEDCYALLYAMAKLMPKSILDIIYKTVR | failed |
| MANWLNQLQSLLGQSSSSTSSSADQGLGKLLVSGALGGLAGLLVANKSARKLLTKYGTNALLVGGGAVAGTVLWNKYKDKIRAAHQDEPQFGAQSTPLDERTERLILALVFAAKSDGHIDANERAAIDQQLREAGVEEQGRVLIEQAIEQPLDPQRLATGVRNEEEALEIYFLSCAAIDIDHFMERSYLNALGDALKIPQDVREGIERDLEQQKRTLAE | failed |
| PSGATGKDGLAIPVGKDTAKSSLTVWEDFRCPACKIFETTYRPTLHELVGAGKLKIDYHLVTIIDDGRGGSGSRQAANAAACAQDAGKFTAYHDVLYDNQPDETVDSFADDSKLIELAGKVDGLDTPAFRKCVKDGTHNSWVVKSNAAFDSGGFKGTPTVLFGGKNLAADPTMTPAKLKQMVEAANK | failed |
| PPLEINSRVSLKVGETIESGTVIFCDVLPGKESLGYFVGVDMDNPIGNWDGRFDGVQLCSFACVESTILLHINDIIPES | not failed |
| MPEEALIVVDMQRDFMPGGALPVPEGDKIIPKVNEYIRKFKEKGALIVATRDWHPENHISFRERGGPWPRHCVQNTPGAEFVVDLPEDAVIISKATEPDKEAYSGFEGTDLAKILRGNGVKRVYICGVATEYCVRATALDALKHGFEVYLLRDAVKGIKPEDEERALEEMKSRGIKIVQF | not failed |
| MSIASLIGTVGGVGYLRPAPGTWGSLAALPLAWVLHQLGGFPLLALATLGAFVAGLWATRVMTAGQTDHDPSEIVIDEVAGQFLALWALSLPAWSHGIEISALWPGWIAAFVLFRLFDITKPGPVGWADRRGDPMGVMLDDIIAGLFAAIGTALLAALSHGVLGL | failed |
